Experimental findings from PMC7531523 (mAbs, 2020) are described below.

What all share (test): flow cytometry on cells
(Flow cytometry measures light scatter and fluorescence of single cells or particles in a stream.)

Assay [1] addresses PD-1 expressed on Flp-In CHO cells (Homo sapiens (), UniProt Q15116).
For assay [2], the target named is OX40 expressed on Flp-In CHO cells (Homo sapiens (), UniProt P43489).
For assay [3], the target named is PD-L1 expressed on Flp-In CHO cells (Homo sapiens (), UniProt Q9NZQ7).
Sequence of PD-L1 expressed on Flp-In CHO cells (Q9NZQ7 19-290): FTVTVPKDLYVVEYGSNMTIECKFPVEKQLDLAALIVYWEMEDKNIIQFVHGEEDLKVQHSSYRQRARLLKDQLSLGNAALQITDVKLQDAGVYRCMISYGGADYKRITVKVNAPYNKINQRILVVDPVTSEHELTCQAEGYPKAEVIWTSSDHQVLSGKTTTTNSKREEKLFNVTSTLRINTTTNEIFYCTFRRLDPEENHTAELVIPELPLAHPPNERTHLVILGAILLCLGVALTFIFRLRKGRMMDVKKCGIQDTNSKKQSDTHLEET

Sequence of PD-1 expressed on Flp-In CHO cells (Q15116 25-288): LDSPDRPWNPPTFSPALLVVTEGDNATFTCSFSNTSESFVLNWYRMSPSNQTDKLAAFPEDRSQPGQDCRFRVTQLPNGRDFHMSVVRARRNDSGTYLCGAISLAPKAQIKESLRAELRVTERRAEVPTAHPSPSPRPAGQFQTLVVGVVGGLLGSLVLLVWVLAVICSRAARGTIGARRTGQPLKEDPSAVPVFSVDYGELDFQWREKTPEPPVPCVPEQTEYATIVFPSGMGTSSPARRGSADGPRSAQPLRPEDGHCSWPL
Sequence of OX40 expressed on Flp-In CHO cells (P43489 29-277): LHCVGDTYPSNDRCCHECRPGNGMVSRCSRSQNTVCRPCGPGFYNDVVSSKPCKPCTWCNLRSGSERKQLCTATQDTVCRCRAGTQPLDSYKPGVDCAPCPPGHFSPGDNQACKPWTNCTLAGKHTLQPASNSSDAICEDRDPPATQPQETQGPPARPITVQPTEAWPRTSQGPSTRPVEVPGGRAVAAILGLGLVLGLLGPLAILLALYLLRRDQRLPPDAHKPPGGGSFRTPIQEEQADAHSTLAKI

B1: tPD1.16 full-length human IgG1 (antibody, V domains shown)
VH: QVQLVESGGGVVQPGRSLRLSCAASGFTFSNYGMHWVRQAPGKGLEWVAVIWYDGTNKFYADSVKGRFTISRDNSKNTLYLQMNSLRAEDTAVYYCATNSDDYWGQGTLVTVSS
VL: AIQMTQSPSSLSASVGDRVTITCRASQDIRNDLGWYQQKPGKAPKLLIYAASLLRSGVPSRFSGSGSGTDFTLTISSLQPEDFATYYCLQDNNYPRTFGQGTKVEIK
By EC50 is commonly meant the concentration giving half of the maximal effect. For the molecule B1, the EC50 in assay [1] came to 2.8 nM.

B2: tOX40.24 full-length human IgG1 (antibody, V domains shown)
VH: QVQLVESGGGVVQPGRSLRLSCAASGFTFRSYGMHWVRQAPGKGLEWLAIIWYDGSNKYYADSVKGRLTISRDNSKNTLYLQMNSLRAEDTAVYYCARDTQVAEAGFPHHHYYGMDVWGQGTTVTVSS
VL: not shown
For the molecule B2, the response in assay [2] was half-maximal at 0.7 nM (EC50).

B3: tPDL1.3 full-length human IgG1 (antibody, V domains shown)
VH: QVQLVQSGAEVKKPGASVKVSCKASGFTFTSYDINWVRQATGQGLEWMGWMHPNSGITGYAQKFQGRVTMTRNTSISTAYMELSSLSSEDTAVYFCARYYYVSGSYDYWGQGTLVTVSS
VL: EIVMTQSPATLSLSPGERATLSCWASQSVSSSYLSWYQQKPGQAPRLLIYGASTRATGIPARFSGSGSGTDFTLTISSLQPEDFAVYYCQQDYNLPYTFGQGTKLEIK
As for B3, in assay [3], the EC50 is 0.3 nM.
